# Columns and labels:
# [1] = target: T1, wild-type PS1 γ-secretase (Homo sapiens, UniProt P49768); assay: In vitro N1-Sb1 γ-secretase assay, membrane of N2a cells expressing wild-type PS1; assay type: biochemical, murine; details: for reactivity (rate of γ-secretase cleavage) compared with WT substrate: WT PS1, N2a membrane
# T1 construct: total membrane
# Protocol: (§1) HeLa membrane fraction was isolated from HeLa-S3 cells (National Cell Culture Center). The cell pellet was resuspended in Buffer A (50 mM MES, 150 mM KCl, 5 mM CaCl2, 5 mM MgCl2) and lysed by passage through a French Press. N2a cells (murine neuroblastoma cells) over-expressing wild-type PS1, or mutants M146L or E280A, were obtained from Dr. Sangram Sisodia (University of Chicago, Chicago, Ill.). These cells were maintained in 50% Dulbecco's modified Eagle's medium high glucose, 50% Opti-Mem Reduced Serum Media, and 10% fetal calf serum. Cultured cells were pelleted by centrifugation and resuspended in hypotonic buffer (40 mM Tris, pH 7.4, 10 mM NaCl, 1 mM EDTA, and 0.5 mM DTT) for 20 minutes before being lysed with a dounce homogenizer. Nuclear debris from the HeLa and N2a cells were pelleted at 3000 rpm for 30 minutes. The resulting supernatants were ultracentrifuged at 100,000×g for 1 hour. The pellet that contained total cell membrane was resuspended in Buffer A. Mouse brains overexpressing knock-in wild type or M146V PS1 (gift from Dr. Hui Zheng, Amylin Pharmaceuticals, San Diego, Calif.) were homogenized with dounce homogenizer. The cell lysate was centrifuged at 3000 rpm for 30 minutes. The supernatants were ultracentrifuged at 100,000×g for 1 hour. Protein concentration was determined with the DC Protein Assay Kit according to the manufacturer's instructions (Bio-Rad, Hercules, Calif.).
# (§2) An in vitro γ-secretase assay using a novel recombinant APP-derived substrate (termed “Sb4”) is disclosed in co-pending application U.S. Ser. No. 12/776,141. In the present assay based on a Notch-derived substrate, N1-Sb1 was incubated with the cell membrane fraction, prepared as described above, in the presence of 0.25% CHAPSO and 1×PIPES buffer (50 mM PIPES, pH 7.0, 150 mM KCl, 5 mM CaCl2, 5 mM MgCl2. The reaction was incubated at 37° C. for 2 hours. The Perkin Elmer AlphaScreen™ detection system was employed to assay for Notch cleavage. AlphaScreen (PerkinElmer Life and Analytical Sciences, Shelton, Conn.) is a bead based non-radioactive Amplified Luminescent Proximity Homogeneous Assay (ALPHA). When a biological interaction brings the beads together, a cascade of chemical reactions acts to produce a greatly amplified signal. Specifically, upon laser excitation, a photosensitizer in the “Donor” bead converts ambient (triplet) oxygen to the more reactive singlet state. The singlet state oxygen molecules diffuse into the solvent, and may react with a thioxene derivative in the Acceptor bead if nearby, generating chemiluminescence at 370 nm that further activates fluorophores contained in the same bead. The fluorophores subsequently emit light at 520-620 nm. In the absence of a specific biological interaction, the singlet state oxygen molecules produced by the donor bead go undetected without the close proximity of the acceptor bead. As a result no fluorescence signal at 520-620 nm is produced.
# (§3) In the present system, antibody SM320, Protein A-conjugated acceptor beads, and Streptavidin-conjugated donor beads (PerkinElmer) were added to the reaction at a final concentration of 0.2 μg/ml, 2.5 μg/ml and 5 μg/ml, respectively (diagrammed in FIG. 5A). The reaction was incubated in the dark at room-temperature for 4 hours. The ALPHA signal was detected using the Envision plate reader (Perkin Elmer). The reactions were excited at 680 nm and signal was detected at 615 nm.
# (§4) The effects of PS1 FAD mutations on Notch cleavage were determined using the new γ-secretase assay described in Example 2. The activities of two PS1 FAD mutations—PS1 M146L and E280A were compared against wild-type PS1 (WT), which has been previously studied (25). Total membrane was isolated from N2a cells that stably express WT, M146L, or E280A mutants. N1-Sb1 was incubated with these membranes and the resulting cN1-Sb1 was detected with SM320. […] The M146L and E280A mutants had 40% and 14% activity remaining, respectively, compared to the activity of the wild type (FIG. 7A). […]
# M146L PS1 γ-secretase = target: T2, M146L PS1 γ-secretase (Homo sapiens, UniProt P49768, M146L); assay: In vitro N1-Sb1 γ-secretase assay, membrane of N2a cells expressing M146L PS1; assay type: biochemical, murine; details: M146L PS1, N2a membrane
# T2 construct: total membrane
# Protocol: as §1, §2, §3, §4
# E280A PS1 γ-secretase = target: T3, E280A PS1 γ-secretase (Homo sapiens, UniProt P49768, E280A); assay: In vitro N1-Sb1 γ-secretase assay, membrane of N2a cells expressing E280A PS1; assay type: biochemical, murine; details: E280A PS1, N2a membrane
# T3 construct: total membrane
# Protocol: as §1, §2, §3, §4
# [2] = target: T4, WT PS1 γ-secretase (knock-in mouse brain) (Mus musculus, UniProt P49769); assay: In vitro N1-Sb1 γ-secretase assay, knock-in wild type PS1 mouse brain membrane; assay type: biochemical
# T4 construct: Total membrane from these mouse brains was isolated; tissue gift from Dr. Hui Zheng; host or cells: mouse brain (PS1 knock-in), total membrane
# Protocol: as §1, with “The pellet that contained total cell membrane was resuspended in Buffer A. Mouse brains overexpressing knock-in wild type or M146V PS1 (gift from Dr. Hui Zheng, Amylin Pharmaceuticals, San Diego, Calif.) were homogenized with dounce homogenizer. The cell lysate was centrifuged at 3000 rpm for 30 minutes. The supernatants were ultracentrifuged at 100,000×g for 1 hour.” left out
# (§5) An in vitro γ-secretase assay using a novel recombinant APP-derived substrate (termed “Sb4”) is disclosed in co-pending application U.S. Ser. No. 12/776,141. […] As a result no fluorescence signal at 520-620 nm is produced.
# as §3, with “The reaction was incubated in the dark at room-temperature for 4 hours.” left out
# (§6) Mouse brain specimens were obtained that either expressed knock-in wild type PS1 or the M146V PS1 mutation (25, 26). […] The cN1-Sb1 cleavage product was detected with the new in-vitro γ-secretase assay of Example 2. […]
# [3] = test system: M146V PS1 γ-secretase (knock-in mouse brain); assay: In vitro N1-Sb1 γ-secretase assay, knock-in M146V PS1 mouse brain membrane; assay type: biochemical
# Protocol: as §1, §5
# as §3, with “The reaction was incubated in the dark at room-temperature for 4 hours.” left out
# as §6
# [4] = target: T5, γ-secretase (HeLa membrane) (Homo sapiens, UniProt P49768); assay: In vitro N1-Sb1 γ-secretase assay (ALPHA detection with SM320), HeLa membrane; assay type: biochemical
# T5 construct: host or cells: HeLa-S3 cells, total membrane fraction
# Protocol: as §1
# An in vitro γ-secretase assay using a novel recombinant APP-derived substrate (termed “Sb4”) is disclosed in co-pending application U.S. Ser. No. 12/776,141. In the present assay based on a Notch-derived substrate, N1-Sb1 was incubated with the cell membrane fraction, prepared as described above, in the presence of 0.25% CHAPSO and 1×PIPES buffer (50 mM PIPES, pH 7.0, 150 mM KCl, 5 mM CaCl2, 5 mM MgCl2. The reaction was incubated at 37° C. for 2 hours. The Perkin Elmer AlphaScreen™ detection system was employed to assay for Notch cleavage. AlphaScreen (PerkinElmer Life and Analytical Sciences, Shelton, Conn.) is a bead based non-radioactive Amplified Luminescent Proximity Homogeneous Assay (ALPHA). When a biological interaction brings the beads together, a cascade of chemical reactions acts to produce a greatly amplified signal. Specifically, upon laser excitation, a photosensitizer in the “Donor” bead converts ambient (triplet) oxygen to the more reactive singlet state. […] As a result no fluorescence signal at 520-620 nm is produced.
# as §3, with “The reaction was incubated in the dark at room-temperature for 4 hours.” left out
# HeLa membrane was incubated with N1-Sb1 substrate in the presence of 0.25% CHAPSO. The γ-secretase cleavage product (cN1-Sb1) was detected by the PerkinElmer proximity assay (ALPHA) using the SM320 antibody, Protein A-conjugated acceptor-beads (which bind SM320) and streptavidin-conjugated donor-beads (which bind biotin) (FIG. 5A). cN1-Sb1 levels in DMSO-treated assay was 10-fold higher than in the presence of the inhibitor L-685,458 (L458; structure shown below)-treated assay. […]
# [5] = read-out: Km for N1-Sb1 cleavage
molecule,measurement,setting,value
"C1752A: N1-Sb1 substrate with P2 residue Cys 1752 substituted with Ala (protein, UniProt P46531 1733-1812, looked up, variant C1752A, biotinylated AviTag, N1-Sb1 substrate with P2 residue Cys 1752 substituted with Ala) QLHFMYVAAAAFVLLFFVGAGVLLSRKRRRQHGQLWFPEGFKVSEASKKKRREPLGEDSVGLKPLKNASDGALMDDNQNE",reactivity (rate of γ-secretase cleavage) compared with WT substrate,[1],20-30%
same,reactivity (rate of γ-secretase cleavage) compared with WT substrate,M146L PS1 γ-secretase,20-30%
same,reactivity (rate of γ-secretase cleavage) compared with WT substrate,E280A PS1 γ-secretase,20-30%
"C1752M: N1-Sb1 substrate with P2 residue Cys 1752 substituted with Met (protein, UniProt P46531 1733-1812, looked up, variant C1752M, biotinylated AviTag, N1-Sb1 substrate with P2 residue Cys 1752 substituted with Met) QLHFMYVAAAAFVLLFFVGMGVLLSRKRRRQHGQLWFPEGFKVSEASKKKRREPLGEDSVGLKPLKNASDGALMDDNQNE",reactivity (rate of γ-secretase cleavage) compared with WT substrate,[1],no effect
same,reactivity (rate of γ-secretase cleavage) compared with WT substrate,M146L PS1 γ-secretase,166.4±6.1%
same,reactivity (rate of γ-secretase cleavage) compared with WT substrate,E280A PS1 γ-secretase,185.5±7.4%
same,reactivity (rate of γ-secretase cleavage) compared with WT substrate,[2]; WT PS1 knock-in mouse brain,no effect
same,reactivity (rate of γ-secretase cleavage) compared with WT substrate,[3]; M146V knock-in PS1 mouse brain,127.4±3.7%
"C1752V: N1-Sb1 substrate with P2 residue Cys 1752 substituted with Val (protein, UniProt P46531 1733-1812, looked up, variant C1752V, biotinylated AviTag, N1-Sb1 substrate with P2 residue Cys 1752 substituted with Val) QLHFMYVAAAAFVLLFFVGVGVLLSRKRRRQHGQLWFPEGFKVSEASKKKRREPLGEDSVGLKPLKNASDGALMDDNQNE",reactivity (rate of γ-secretase cleavage) compared with WT substrate,[1],no effect
same,reactivity (rate of γ-secretase cleavage) compared with WT substrate,M146L PS1 γ-secretase,141.3±17.9%
same,reactivity (rate of γ-secretase cleavage) compared with WT substrate,E280A PS1 γ-secretase,no effect
"N1-Sb1: biotinylated recombinant substrate: human Notch1 fragment (residues 1733-1812) with AviTag (protein, biotinylated; Notch substrate N1Sb1 (NTM2), biotinylated recombinant substrate: human Notch1 fragment (residues 1733-1812) with AviTag) PAQLHFMYVAAAAFVLLFFVGCGVLLSRKRRRQHGQLWFPEGFKVSEASKKKRREPLGEDSVGLKPLKNASDGALMDDNQN",Vmax of N1-Sb1 cleavage,[4]; arbitrary units,38 Unit/μg/min
same,Km,[4]; read-out: apparent Km of N1-Sb1 cleavage by γ-secretase,0.15 ± 0.03 µM
same,Vmax for N1-Sb1 cleavage,"[1]; PS1 wild-type, N2a membrane",293 U/μg/min
same,Km,"[1]; PS1 wild-type, N2a membrane, read-out: Km for N1-Sb1 cleavage",0.07 µM
same,N1-Sb1 cleavage activity remaining compared to wild type PS1,M146L PS1 γ-secretase,40%
same,Vmax for N1-Sb1 cleavage,M146L PS1 γ-secretase,163 U/μg/min
same,Km,M146L PS1 γ-secretase; [5],0.049 µM
same,N1-Sb1 cleavage activity remaining compared to wild type PS1,E280A PS1 γ-secretase,14%
same,Vmax for N1-Sb1 cleavage,E280A PS1 γ-secretase,49 U/μg/min
same,Km,E280A PS1 γ-secretase; [5],0.05 µM
same,Vmax for N1-Sb1 cleavage,[2]; WT PS1 mouse brain membrane,52 U/μg/min
same,Km,"[2]; WT PS1 mouse brain membrane, read-out: Km for N1-Sb1 cleavage",0.06 µM
same,Notch (N1-Sb1) cleavage activity compared to wild-type PS1,[3]; M146V PS1 mouse brain membrane,less activity
same,Vmax for N1-Sb1 cleavage,[3]; M146V PS1 mouse brain membrane,40 U/μg/min
same,Km,"[3]; M146V PS1 mouse brain membrane, read-out: Km for N1-Sb1 cleavage",0.048 µM

# From patent US9632088B2, “Methods and compositions for gamma-secretase assay” (MEMORIAL SLOAN-KETTERING CANCER CENTER, priority 2010, dated 2017)
